The values below come from the supplement of paper PMC7877785.

± gives the uncertainty stated by the source.

The data set in a line: self-splicing fitness, log relative to wild type (ln ratio); higher = more splicing; Tetrahymena group I intron in knt gene, E. coli kanamycin selection, DiMSum; sequences stand for … in CUCUCU…GGAGGGAAAAGUUAUCAGGCAUGCACCUGGUAGCUAGUCUUUAAACCAAUAGAUUGCAUCGGUUUAAAAGGCAAGACCGUCAAAUUGCGGGAAAGGGGUCAACAGCCGUUCAGUACCAAGUCUCAGGGGAAACUUUGAGAUGGCCUUGCAAAGGGUAUGGUAAUAAGCUGACGGACAUGGUCCUAACCACGCAGCCAAGUCCUAAGUCAACAGAUCUUCUGUUGAUAUGGAUGCAGUUCACAGACUAAAUGUCGGUCGGGGAAGAUGUAUUCUUCUCAUAAGAUAUAGUCGGACCUCUCCUUAAUGGGAGCUAGCGGAUGAAGUGAUGCAACACUGGAGCCGCUGGGAACUAAUUUGUAUGCGAAAGUAUAUUGAUUAGUUUUGGAGUACUCGUGGUCG
The method, boiled down: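 The eight P1ex-region nucleotides of an intron in the knt kanamycin-resistance gene on pET-22b(+) were all randomised and the library put into E. coli BL21(DE3). Six replicate transformations were grown overnight at 37°C or 30°C on LB agar with or without 25 μg/mL kanamycin, together with 100 μg/mL carbenicillin, 50 μM IPTG and 0.2% rhamnose. Colonies were pooled and amplicon-sequenced on an Illumina HiSeq 2500. Fitness from DiMSum is the error-weighted combination of wild-type-normalised replicate fold changes, kanamycin over none.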

For the sequence AGAUAGCAAUAUUACGGUCG, the “self-splicing fitness (ln)” value reads like this: (30 °C) -0.105 ± 0.12; (37 °C) -0.324 ± 0.15. For AGAUAGCAAUAUUACGGUUU, in that order: -0.692 ± 0.055 and -0.341 ± 0.076.

With AGAUAGCAAUAUUACGUACU, the “self-splicing fitness (ln)” value is, setting by setting: (30 °C) -0.357 ± 0.15; (37 °C) -0.0062 ± 0.15. With AGAUAGCAAUAUUACGUAGA, the “self-splicing fitness (ln)” value is -3.03 ± 0.15 (30 °C) and -1.77 ± 0.16 (37 °C). With AGAUAGCAAUAUUACGUGGC, the “self-splicing fitness (ln)” value (30 °C) was -3.18 ± 0.23 and the “self-splicing fitness (ln)” value (37 °C) is -2.86 ± 0.32. As for AGAUAGCAAUAUUACGUUUU, the “self-splicing fitness (ln)” value by setting is: (30 °C) -2.35 ± 0.09; (37 °C) -1.68 ± 0.1. Take AGCAAGCAAUAUUACGAAAA: the “self-splicing fitness (ln)” value is, setting by setting: (30 °C) -3.39 ± 0.19; (37 °C) -2.39 ± 0.18.

Consider AGCAAGCAAUAUUACGACCA, for which the “self-splicing fitness (ln)” value reads like this: (30 °C) -0.697 ± 0.09; (37 °C) -0.178 ± 0.12. Take AGCAAGCAAUAUUACGAGAU: the “self-splicing fitness (ln)” value was -3.64 ± 0.24 (30 °C) and -1.27 ± 0.21 (37 °C). On to AGCAAGCAAUAUUACGAGCC, for which the “self-splicing fitness (ln)” value (30 °C) was -1.65 ± 0.37. With AGCAAGCAAUAUUACGAUGG, the “self-splicing fitness (ln)” value is -2.63 ± 0.15 (30 °C) and -2.01 ± 0.2 (37 °C).

As for AGCAAGCAAUAUUACGCACC, the “self-splicing fitness (ln)” value reads like this: (30 °C) -0.646 ± 0.14; (37 °C) 0.533 ± 0.18. In the case of AGCAAGCAAUAUUACGCAGA, the “self-splicing fitness (ln)” value was -2.73 ± 0.22 (30 °C) and -2.05 ± 0.18 (37 °C). In the case of AGCAAGCAAUAUUACGCAGG, the “self-splicing fitness (ln)” value runs as follows: (30 °C) -2.95 ± 0.16; (37 °C) -1.63 ± 0.12. In the case of AGCAAGCAAUAUUACGCAGU, the “self-splicing fitness (ln)” value by setting is: (30 °C) -3.01 ± 0.18; (37 °C) -1.28 ± 0.14. For AGCAAGCAAUAUUACGCCAC, in that order: -3.17 ± 0.28 and -3.33 ± 0.28. In the case of AGCAAGCAAUAUUACGCUGG, the “self-splicing fitness (ln)” value was -4.34 ± 0.41 (30 °C) and -2.95 ± 0.26 (37 °C). Regarding AGCAAGCAAUAUUACGCUUG, the “self-splicing fitness (ln)” value (30 °C) is -4.25 ± 0.28 and the “self-splicing fitness (ln)” value (37 °C) is -1.29 ± 0.2. As for AGCAAGCAAUAUUACGGAGC, the “self-splicing fitness (ln)” value reads like this: (30 °C) -2.67 ± 0.19; (37 °C) -1.31 ± 0.24. For AGCAAGCAAUAUUACGGCGC, in that order: -0.695 ± 0.095 and 0.164 ± 0.16. Consider AGCAAGCAAUAUUACGGGAA, for which the “self-splicing fitness (ln)” value by setting is: (30 °C) -2.65 ± 0.14; (37 °C) -1.03 ± 0.1. In the case of AGCAAGCAAUAUUACGGGUG, the “self-splicing fitness (ln)” value is, setting by setting: (30 °C) -1.36 ± 0.056; (37 °C) -0.789 ± 0.076. Turning to AGCAAGCAAUAUUACGUAAU, the “self-splicing fitness (ln)” value was -1.99 ± 0.1 (30 °C) and -1.27 ± 0.12 (37 °C). As for AGCAAGCAAUAUUACGUGGU, the “self-splicing fitness (ln)” value runs as follows: (30 °C) -2.79 ± 0.12; (37 °C) -3.13 ± 0.18. For the sequence AGCAAGCAAUAUUACGUUGC, the “self-splicing fitness (ln)” value (30 °C) was -3.69 ± 0.19 and the “self-splicing fitness (ln)” value (37 °C) is -1.08 ± 0.16.

For the sequence AGCCAGCAAUAUUACGACAU, the “self-splicing fitness (ln)” value (30 °C) was -1.512 ± 0.012 and the “self-splicing fitness (ln)” value (37 °C) was -0.664 ± 0.032. For AGCCAGCAAUAUUACGACCC, in that order: -1.46 ± 0.34 and -0.503 ± 0.24. Take AGCCAGCAAUAUUACGACGA: the “self-splicing fitness (ln)” value (30 °C) was -1.97 ± 0.1 and the “self-splicing fitness (ln)” value (37 °C) was -1.76 ± 0.12.

As to AGCCAGCAAUAUUACGAGCU, the “self-splicing fitness (ln)” value reads like this: (30 °C) -3.38 ± 0.21; (37 °C) -3 ± 0.35.

For AGCCAGCAAUAUUACGCAAC, the “self-splicing fitness (ln)” value is -4.16 ± 0.32 (30 °C) and -1.4 ± 0.23 (37 °C). With AGCCAGCAAUAUUACGCACA, the “self-splicing fitness (ln)” value (30 °C) is -1.96 ± 0.13 and the “self-splicing fitness (ln)” value (37 °C) is -0.518 ± 0.11. For the sequence AGCCAGCAAUAUUACGCAGC, the “self-splicing fitness (ln)” value (37 °C) was -1.21 ± 0.28. With AGCCAGCAAUAUUACGCAUU, the “self-splicing fitness (ln)” value by setting is: (30 °C) -1.65 ± 0.062; (37 °C) -1.25 ± 0.075.

Regarding AGCCAGCAAUAUUACGCCAC, where the note is “37 °C”, the “self-splicing fitness (ln)” value was -3.04 ± 0.43. Take AGCCAGCAAUAUUACGCCGA: the “self-splicing fitness (ln)” value (37 °C) was -0.449 ± 0.29.

On to AGCCAGCAAUAUUACGCUAC, for which the “self-splicing fitness (ln)” value runs as follows: (30 °C) -2.52 ± 0.18; (37 °C) -0.749 ± 0.17. As for AGCCAGCAAUAUUACGGAAG, the “self-splicing fitness (ln)” value is, setting by setting: (30 °C) -1.57 ± 0.1; (37 °C) 0.171 ± 0.12. With AGCCAGCAAUAUUACGGCCG, the “self-splicing fitness (ln)” value reads like this: (30 °C) -1.29 ± 0.11; (37 °C) -0.262 ± 0.13. With AGCCAGCAAUAUUACGGCUG, the “self-splicing fitness (ln)” value reads like this: (30 °C) -2.52 ± 0.17; (37 °C) -1.53 ± 0.2. In the case of AGCCAGCAAUAUUACGGGAG, the “self-splicing fitness (ln)” value reads like this: (30 °C) -2.56 ± 0.11; (37 °C) -2.17 ± 0.14. For AGCCAGCAAUAUUACGGUUG, the “self-splicing fitness (ln)” value (30 °C) was -0.979 ± 0.051 and the “self-splicing fitness (ln)” value (37 °C) is -0.86 ± 0.075. In the case of AGCCAGCAAUAUUACGUAAA, the “self-splicing fitness (ln)” value reads like this: (30 °C) -3.03 ± 0.12; (37 °C) -1.55 ± 0.13. With AGCCAGCAAUAUUACGUACA, the “self-splicing fitness (ln)” value (30 °C) was -3.16 ± 0.22 and the “self-splicing fitness (ln)” value (37 °C) was -2.5 ± 0.27.

Regarding AGCCAGCAAUAUUACGUCUU, the “self-splicing fitness (ln)” value (30 °C) was -1.23 ± 0.072 and the “self-splicing fitness (ln)” value (37 °C) is -0.744 ± 0.089.

Consider AGCCAGCAAUAUUACGUGAU, for which the “self-splicing fitness (ln)” value reads like this: (30 °C) -2.31 ± 0.075; (37 °C) -1.35 ± 0.098. As to AGCCAGCAAUAUUACGUGUA, the “self-splicing fitness (ln)” value is -3.52 ± 0.14 (30 °C) and -1.34 ± 0.11 (37 °C). For the sequence AGCCAGCAAUAUUACGUUAC, the “self-splicing fitness (ln)” value was -4.34 ± 0.31 (30 °C) and -1.88 ± 0.21 (37 °C). As to AGCCAGCAAUAUUACGUUCA, the “self-splicing fitness (ln)” value is, setting by setting: (30 °C) -3.21 ± 0.15; (37 °C) -2.72 ± 0.18.

Consider AGCCAGCAAUAUUACGUUGG, for which the “self-splicing fitness (ln)” value runs as follows: (30 °C) -3.52 ± 0.4; (37 °C) -2.56 ± 0.23. For AGCGAGCAAUAUUACGAACC, the “self-splicing fitness (ln)” value is, setting by setting: (30 °C) -2.18 ± 0.14; (37 °C) -0.856 ± 0.15.

Turning to AGCGAGCAAUAUUACGAAGA, the “self-splicing fitness (ln)” value (37 °C) was -2.72 ± 0.34. Consider AGCGAGCAAUAUUACGACUA, for which the “self-splicing fitness (ln)” value by setting is: (30 °C) -0.953 ± 0.37; (37 °C) -1.03 ± 0.31. As to AGCGAGCAAUAUUACGACUG, the “self-splicing fitness (ln)” value (30 °C) is -1.91 ± 0.15 and the “self-splicing fitness (ln)” value (37 °C) is -0.973 ± 0.17. Consider AGCGAGCAAUAUUACGAGCG, for which the “self-splicing fitness (ln)” value (30 °C) was -1.55 ± 0.14 and the “self-splicing fitness (ln)” value (37 °C) was -0.201 ± 0.14.

Consider AGCGAGCAAUAUUACGCAAC, for which the “self-splicing fitness (ln)” value reads like this: (30 °C) -3.6 ± 0.27; (37 °C) -2.63 ± 0.21. For AGCGAGCAAUAUUACGCAAG, the “self-splicing fitness (ln)” value by setting is: (30 °C) -3.18 ± 0.4; (37 °C) -2.43 ± 0.45. For AGCGAGCAAUAUUACGCGAA, the “self-splicing fitness (ln)” value runs as follows: (30 °C) -2.39 ± 0.36; (37 °C) -1.21 ± 0.32. For AGCGAGCAAUAUUACGCGAG, the “self-splicing fitness (ln)” value (30 °C) was -1.35 ± 0.22 and the “self-splicing fitness (ln)” value (37 °C) is -3.05 ± 0.4. With AGCGAGCAAUAUUACGCGGA, the “self-splicing fitness (ln)” value reads like this: (30 °C) -3.21 ± 0.21; (37 °C) -2.45 ± 0.19. Regarding AGCGAGCAAUAUUACGCGUG, the “self-splicing fitness (ln)” value is -1.48 ± 0.098 (30 °C) and -1.65 ± 0.13 (37 °C). Regarding AGCGAGCAAUAUUACGGGAU, the “self-splicing fitness (ln)” value was -3.92 ± 0.28 (30 °C) and -2.76 ± 0.27 (37 °C).
